The data set deals with FAR (FXR)-RXRalpha heterodimer (Rattus norvegicus / Homo sapiens, UniProt Q62735;P19793 Q62735:1-469,P19793:1-462). The data set can be described thus: cell_activity; 50 uM JH III, CV-1 cells; 17-fold JH III, 76-fold LG69, 212-fold both in p89; parental MTV reporter lacking EcREs not activated. To be noted: tags: CMV-driven expression in CV-1 cells. How it is done:
Thus, with reference to FIG. 5A, CV-1 cells were transiently transfected with hsp27-EcRE×5 MTV-luciferase alone (−) or with expression vectors for rat FAR and/or human RXRα. Reporter activity was assayed after treating cells with or without 50 μM JH III.

This is an account of results in patent US6416957, “Method for modulating process mediated by farnesoid activated receptors” (The Salk Institute for Biological Studies).

Chain of FAR (FXR)-RXRalpha heterodimer (Q62735 whole entry, chain 1 of 2): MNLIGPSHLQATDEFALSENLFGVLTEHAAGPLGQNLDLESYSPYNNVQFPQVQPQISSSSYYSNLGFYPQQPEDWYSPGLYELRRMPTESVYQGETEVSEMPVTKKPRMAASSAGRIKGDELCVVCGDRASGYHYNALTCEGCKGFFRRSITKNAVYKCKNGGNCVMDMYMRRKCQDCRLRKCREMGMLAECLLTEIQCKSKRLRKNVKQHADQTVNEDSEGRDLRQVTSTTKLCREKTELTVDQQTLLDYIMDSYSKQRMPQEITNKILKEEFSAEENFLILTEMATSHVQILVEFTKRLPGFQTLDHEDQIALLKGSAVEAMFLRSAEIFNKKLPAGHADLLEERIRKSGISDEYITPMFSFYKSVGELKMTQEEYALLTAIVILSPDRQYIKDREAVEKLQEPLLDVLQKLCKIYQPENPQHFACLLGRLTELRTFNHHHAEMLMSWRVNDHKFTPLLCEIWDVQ
Chain of FAR (FXR)-RXRalpha heterodimer (P19793 whole entry, chain 2 of 2): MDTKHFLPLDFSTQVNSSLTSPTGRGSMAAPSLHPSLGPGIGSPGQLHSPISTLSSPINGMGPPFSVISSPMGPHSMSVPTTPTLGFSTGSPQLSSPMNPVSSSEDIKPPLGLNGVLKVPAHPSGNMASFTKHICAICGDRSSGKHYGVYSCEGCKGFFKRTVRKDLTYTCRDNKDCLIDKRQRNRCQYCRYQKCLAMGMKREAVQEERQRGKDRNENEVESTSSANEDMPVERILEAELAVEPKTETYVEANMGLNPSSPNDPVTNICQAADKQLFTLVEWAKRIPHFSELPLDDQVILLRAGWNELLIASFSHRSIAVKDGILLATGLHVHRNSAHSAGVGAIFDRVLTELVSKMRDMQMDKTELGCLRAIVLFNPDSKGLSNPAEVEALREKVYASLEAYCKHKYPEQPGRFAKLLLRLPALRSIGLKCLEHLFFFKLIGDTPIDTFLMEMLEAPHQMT

B1: hsp27-EcREx5 MTV-luciferase reporter (dsDNA)
DNA 1: GGTTCAATGCACT
DNA 2: AGTGCATTGAACC
Consider B1, for which the activity was determined as 10 fold.
